B1: Ankyrin-1, residues 1405 to 1484; numbered along this chain, P16157 (parent)
chain: MKMAVISEHLGLSWAELARELQFSVEDINRIRVENPNSLLEQSVALLNLWVIREGQNANMENLYTALQSIDRGEIVNMLE

Variants of: B1
Experiment: abundance fitness (aPCA) (normalised: wild type 0, dead -1); higher = more abundant; growth selection in yeast, the domain comes from the species named
Details: Homo sapiens

Abundance fitness of substitutions, site by site:
Q56: T 0.158; V 0.07; W -0.232; Y -0.147
N57: A -0.212; C -0.168; D -0.072; E 0.163; F -0.437; G 0.017; H -0.255; I -0.636; K -0.117; L -0.108; M -0.075; P -0.061; R -0.191; T -0.154; V -0.068; W -0.175; Y 0.093
A58: C 0.031; E -0.192; F -0.253; G 0.038; H -0.241; I -0.008; K 0.046; L 0.157; M 0.122; N 0.092; P 0.195; Q -0.095; R -0.049; S -0.078; T -0.195; V 0.124; W -0.062; Y -0.065
N59: A -0.047; C -0.222; D 0.245; F -0.388; G -0.151; H -0.376; I -0.314; K -0.02; L -0.2; P -0.253; Q -0.031; R 0.034; S 0.059; T -0.338; V -0.078; W -0.371
M60: A -0.343; C -0.564; E -0.42; F 0.671; G -0.813; H 0.243; K -0.534; N -0.723; P -0.207; R -0.704; S -0.28; T -0.286; V 0.117; W 0.055
E61: A 0.165; D -0.1; G -0.414; Q 0.459; R -0.316; S -0.284; V -0.523
N62: A -0.045; C -0.126; D 0.109; E -0.197; F 0.034; I 0.089; L -0.037; P -0.265; R 0.032; S -0.081; T 0.211; V 0.071; Y 0.002
L63: A -0.79; C -0.748; D -0.763; E -0.646; F -0.632; I 0.037; M -0.027; N -0.806; P -0.805; Q -0.075; R -0.95; S -0.637; T -0.493; V -0.136; W -0.693
Y64: A -0.494; C -0.24; D -0.797; E -0.353; G -0.274; H -0.312; I -0.302; K -0.473; L -0.172; M -0.185; N 0.087; P -0.725; Q -0.594; R -0.407; T -0.049; V -0.225; W -0.531
T65: A -0.029; C -0.002; D 0.009; E 0.015; F -0.095; G -0.045; H -0.05; I -0.209; K -0.055; L -0.072; M -0.15; N -0.004; P 0.095; Q 0.016; R -0.04; S 0.001; V -0.153; W -0.291; Y -0.132
A66: C 0.016; D -0.884; E -0.85; F -1.05; G -0.197; H -0.151; I -0.564; K -0.263; L -0.977; M -0.332; N -0.562; P -0.1; Q -0.402; R -0.746; S -0.26; T -0.794; V -0.749; W -0.99; Y -0.494
L67: A -0.895; C -0.743; E -0.792; F -0.788; G -0.852; H -0.911; I -0.156; M -0.092; P -0.858; Q -0.809; R -0.803; S -0.829; T -0.965; V -0.771; W -0.999
Q68: A -0.012; C -0.235; D -0.109; E -0.102; F -0.178; G -0.152; H -0.029; I -0.097; K 0.169; M -0.181; N 0.003; P -0.767; R -0.038; S -0.199; T -0.256; V -0.08; W -0.146; Y -0.202
S69: A -0.045; C 0.056; D -0.06; E -0.042; F -0.341; H 0.342; I -0.047; K -0.035; L -0.161; M -0.133; N -0.106; P -0.467; Q -0.137; R -0.006; V 0.029; W -0.291
I70: A -0.808; C -0.384; D -0.881; F -0.693; G -0.911; H -0.404; L -0.762; M -0.651; P -0.8; R -0.437; S -0.604; T -0.651; V -0.193; W -0.99; Y -0.152
D71: A -0.229; C -0.144; E 0.075; F -0.627; G 0.095; H -0.192; K -0.058; L -0.811; M -0.127; N 0.006; P -0.437; Q -0.274; R 0.008; S -0.213; T -0.385; V -0.83; W -0.827
R72: A -0.632; C -0.146; D -0.683; E -0.647; G -0.499; H -0.15; I -0.753; L -0.581; M -0.356; P -0.226; Q -0.275; S -0.57; T -0.797
G73: A -0.17; C -0.272; D -0.491; E -0.24; F -0.284; I -0.486; K -0.289; L -0.399; M -0.396; N -0.33; P -0.205; Q -0.141; R -0.297; S -0.192; T -0.306; V -0.172; W -0.29; Y -0.339
E74: A -0.364; C -0.469; D 0.16; F -0.741; H -0.082; I -0.105; K -0.471; L -0.562; N -0.478; P -0.264; Q -0.45; R -0.65; V -0.839
I75: C -0.734; D -0.54; E -0.766; F -0.785; G -0.509; H -0.594; L -0.199; M -0.256; P -0.546; R -0.915; S -0.457; T -0.342; V -0.098; W -0.663; Y -0.692
V76: A -0.423; C -0.051; E -0.358; F -0.528; G -0.566; H -0.465; I 0.079; K -0.283; L -0.054; M -0.307; P -0.234; Q -0.505; T -0.244; W -0.388; Y -0.264
N77: A 0.084; C -0.479; D -0.347; E -0.111; H -0.175; K 0.03; L -0.043; M -0.152; P -0.283; Q 0.148; R 0.08; S -0.005; T 0.041; V -0.078; W 0.018; Y -0.215
M78: A -0.003; C 0.065; D -0.013; E -0.236

Reference: the Human Domainome abundance scans (Beltran et al. 2025)
